pKd: −log10 of the molar value.
Target: TASK3 (UniProt Q9NPC2)
Assay: fluorescence polarisation

Sequence of UniProt Q9NPC2 (Q9NPC2 whole entry): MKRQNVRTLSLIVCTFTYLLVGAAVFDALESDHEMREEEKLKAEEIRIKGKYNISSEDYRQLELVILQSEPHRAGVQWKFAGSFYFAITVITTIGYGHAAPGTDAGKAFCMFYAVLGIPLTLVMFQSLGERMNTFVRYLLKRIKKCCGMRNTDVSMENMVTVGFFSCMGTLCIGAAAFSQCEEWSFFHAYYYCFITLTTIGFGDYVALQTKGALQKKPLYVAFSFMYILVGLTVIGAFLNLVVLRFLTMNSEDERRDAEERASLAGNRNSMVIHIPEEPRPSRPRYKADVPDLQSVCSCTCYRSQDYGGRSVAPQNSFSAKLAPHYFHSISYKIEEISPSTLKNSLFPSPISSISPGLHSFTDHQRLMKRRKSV

pKd: 5.39
cooperativity factor α (stabilisation of the pair by fusicoccin-A): 1340
Substance: 14-3-3 protein (from UniProt P31947 1-248) (natural protein)
